Results reported in patent US10941182 (Amgen, dated 2021).
Starred links: 1 amine or outer side, 2 acyl side, 3 side chain; linkers in the order of their positions; H or OH if unused. Non-standard residues stand in square brackets, D forms with d. Primed or numbered codes have the meaning given here. *: point of attachment. dBip = N[C@H](Cc1ccc(-c2ccccc2)cc1)C(=O)O; Oic = O=C(O)[C@@H]1C[C@@H]2CCCC[C@@H]2N1; Phe(4-Cl) = N[C@@H](Cc1ccc(Cl)cc1)C(=O)O; dPhe(4-Cl) = N[C@H](Cc1ccc(Cl)cc1)C(=O)O; Heptadecanoyl = CCCCCCCCCCCCCCCCC(=O)*; Phe(4-I) = N[C@@H](Cc1ccc(I)cc1)C(=O)O; γGlu = O=C(O)[C@H](CCC(=O)[*:2])N[*:1]; NMeR = CN[C@@H](CCCNC(=N)N)C(=O)O; Tridecanoyl = CCCCCCCCCCCCC(=O)*; hArg = N=C(N)NCCCC[C@H](N)C(=O)O; Tic = O=C(O)[C@@H]1Cc2ccccc2CN1; Cha = N[C@@H](CC1CCCCC1)C(=O)O; NMeL = CN[C@@H](CC(C)C)C(=O)O; Nle = CCCC[C@H](N)C(=O)O; Pip′ = not defined here; AEEA = NCCOCCOCC(=O)O

T1: human APJ receptor (human, UniProt P35414 1-380)
T1 sequence (looked up): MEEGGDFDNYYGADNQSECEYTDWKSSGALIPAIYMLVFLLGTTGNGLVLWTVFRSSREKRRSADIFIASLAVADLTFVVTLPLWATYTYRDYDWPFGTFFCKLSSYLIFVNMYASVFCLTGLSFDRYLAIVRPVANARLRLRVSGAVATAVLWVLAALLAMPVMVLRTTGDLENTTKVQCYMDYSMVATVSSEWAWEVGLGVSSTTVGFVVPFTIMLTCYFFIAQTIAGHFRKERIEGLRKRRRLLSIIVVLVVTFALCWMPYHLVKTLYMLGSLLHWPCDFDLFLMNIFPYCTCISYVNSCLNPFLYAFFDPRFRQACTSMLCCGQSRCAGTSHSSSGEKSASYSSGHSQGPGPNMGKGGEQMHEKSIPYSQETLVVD

T2: rat APJ receptor (rat, UniProt Q9JHG3 1-377)
T2 sequence (looked up): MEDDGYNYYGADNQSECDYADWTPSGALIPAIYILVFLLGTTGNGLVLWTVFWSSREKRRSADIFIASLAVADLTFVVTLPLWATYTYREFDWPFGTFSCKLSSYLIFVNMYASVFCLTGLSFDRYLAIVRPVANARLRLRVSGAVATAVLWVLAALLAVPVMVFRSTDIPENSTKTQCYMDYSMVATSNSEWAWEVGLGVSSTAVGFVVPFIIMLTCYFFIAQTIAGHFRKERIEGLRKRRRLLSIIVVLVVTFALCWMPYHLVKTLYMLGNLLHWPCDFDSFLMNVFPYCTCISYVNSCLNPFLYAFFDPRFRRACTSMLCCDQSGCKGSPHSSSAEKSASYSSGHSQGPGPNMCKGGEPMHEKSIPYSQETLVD

B1: apelin polypeptide SEQ ID NO: 223 (peptide)
peptide: Tridecanoyl-[γGlu][AEEA][AEEA]QRP[hArg][Cha]SHKG[Oic][Phe(4-I)]P[dBip]-OH
SMILES: CCCCCCCCCCCCC(=O)N[C@@H](CCC(=O)NCCOCCOCC(=O)NCCOCCOCC(=O)N[C@@H](CCC(N)=O)C(=O)N[C@@H](CCCNC(=N)N)C(=O)N1CCC[C@H]1C(=O)N[C@@H](CCCCNC(=N)N)C(=O)N[C@@H](CC1CCCCC1)C(=O)N[C@@H](CO)C(=O)N[C@@H](Cc1c[nH]cn1)C(=O)N[C@@H](CCCCN)C(=O)NCC(=O)N1[C@H](C(=O)N[C@@H](Cc2ccc(I)cc2)C(=O)N2CCC[C@H]2C(=O)N[C@H](Cc2ccc(-c3ccccc3)cc2)C(=O)O)C[C@@H]2CCCC[C@@H]21)C(=O)O
B2: apelin polypeptide SEQ ID NO: 237 (peptide)
peptide: Heptadecanoyl-[γGlu][AEEA][AEEA][dQ][hArg]P[NMeR][Cha]SHKG[Oic][Nle]P[dPhe(4-Cl)]-OH
SMILES: CCCCCCCCCCCCCCCCC(=O)N[C@@H](CCC(=O)NCCOCCOCC(=O)NCCOCCOCC(=O)N[C@H](CCC(N)=O)C(=O)N[C@@H](CCCCNC(=N)N)C(=O)N1CCC[C@H]1C(=O)N(C)[C@@H](CCCNC(=N)N)C(=O)N[C@@H](CC1CCCCC1)C(=O)N[C@@H](CO)C(=O)N[C@@H](Cc1c[nH]cn1)C(=O)N[C@@H](CCCCN)C(=O)NCC(=O)N1[C@H](C(=O)N[C@@H](CCCC)C(=O)N2CCC[C@H]2C(=O)N[C@H](Cc2ccc(Cl)cc2)C(=O)O)C[C@@H]2CCCC[C@@H]21)C(=O)O
B3: apelin polypeptide SEQ ID NO: 238 (peptide)
peptide: Heptadecanoyl-[γGlu][AEEA][AEEA]Q[dR]P[NMeR][Cha]SHKG[Oic][Nle]P[Tic]-OH
SMILES: CCCCCCCCCCCCCCCCC(=O)N[C@@H](CCC(=O)NCCOCCOCC(=O)NCCOCCOCC(=O)N[C@@H](CCC(N)=O)C(=O)N[C@H](CCCNC(=N)N)C(=O)N1CCC[C@H]1C(=O)N(C)[C@@H](CCCNC(=N)N)C(=O)N[C@@H](CC1CCCCC1)C(=O)N[C@@H](CO)C(=O)N[C@@H](Cc1c[nH]cn1)C(=O)N[C@@H](CCCCN)C(=O)NCC(=O)N1[C@H](C(=O)N[C@@H](CCCC)C(=O)N2CCC[C@H]2C(=O)N2Cc3ccccc3C[C@H]2C(=O)O)C[C@@H]2CCCC[C@@H]21)C(=O)O
B4: apelin polypeptide SEQ ID NO: 228 (peptide)
peptide: Tridecanoyl-[γGlu][AEEA][AEEA]Q[hArg]P[dR][Cha]SHKG[Oic][Nle]P[Phe(4-Cl)]-OH
SMILES: CCCCCCCCCCCCC(=O)N[C@@H](CCC(=O)NCCOCCOCC(=O)NCCOCCOCC(=O)N[C@@H](CCC(N)=O)C(=O)N[C@@H](CCCCNC(=N)N)C(=O)N1CCC[C@H]1C(=O)N[C@H](CCCNC(=N)N)C(=O)N[C@@H](CC1CCCCC1)C(=O)N[C@@H](CO)C(=O)N[C@@H](Cc1c[nH]cn1)C(=O)N[C@@H](CCCCN)C(=O)NCC(=O)N1[C@H](C(=O)N[C@@H](CCCC)C(=O)N2CCC[C@H]2C(=O)N[C@@H](Cc2ccc(Cl)cc2)C(=O)O)C[C@@H]2CCCC[C@@H]21)C(=O)O
B5: apelin polypeptide SEQ ID NO: 242 (peptide)
peptide: Heptadecanoyl-[γGlu][AEEA][AEEA][hArg][dQ][hArg]P[NMeR][Cha]SHKG[Oic][Nle]P[dPhe(4-Cl)]-OH
SMILES: CCCCCCCCCCCCCCCCC(=O)N[C@@H](CCC(=O)NCCOCCOCC(=O)NCCOCCOCC(=O)N[C@@H](CCCCNC(=N)N)C(=O)N[C@H](CCC(N)=O)C(=O)N[C@@H](CCCCNC(=N)N)C(=O)N1CCC[C@H]1C(=O)N(C)[C@@H](CCCNC(=N)N)C(=O)N[C@@H](CC1CCCCC1)C(=O)N[C@@H](CO)C(=O)N[C@@H](Cc1c[nH]cn1)C(=O)N[C@@H](CCCCN)C(=O)NCC(=O)N1[C@H](C(=O)N[C@@H](CCCC)C(=O)N2CCC[C@H]2C(=O)N[C@H](Cc2ccc(Cl)cc2)C(=O)O)C[C@@H]2CCCC[C@@H]21)C(=O)O
B6: apelin polypeptide SEQ ID NO: 227 (peptide)
peptide: Tridecanoyl-[γGlu][AEEA][AEEA]Q[hArg]P[dR][NMeL]SHKG[Oic][Nle]P[dBip]-OH
SMILES: CCCCCCCCCCCCC(=O)N[C@@H](CCC(=O)NCCOCCOCC(=O)NCCOCCOCC(=O)N[C@@H](CCC(N)=O)C(=O)N[C@@H](CCCCNC(=N)N)C(=O)N1CCC[C@H]1C(=O)N[C@H](CCCNC(=N)N)C(=O)N(C)[C@@H](CC(C)C)C(=O)N[C@@H](CO)C(=O)N[C@@H](Cc1c[nH]cn1)C(=O)N[C@@H](CCCCN)C(=O)NCC(=O)N1[C@H](C(=O)N[C@@H](CCCC)C(=O)N2CCC[C@H]2C(=O)N[C@H](Cc2ccc(-c3ccccc3)cc2)C(=O)O)C[C@@H]2CCCC[C@@H]21)C(=O)O
B7: apelin polypeptide SEQ ID NO: 224 (peptide)
peptide: Tridecanoyl-[γGlu][AEEA][AEEA]QRP[dR][Cha]SHKG[Oic][Phe(4-I)]P[dBip]-OH
SMILES: CCCCCCCCCCCCC(=O)N[C@@H](CCC(=O)NCCOCCOCC(=O)NCCOCCOCC(=O)N[C@@H](CCC(N)=O)C(=O)N[C@@H](CCCNC(=N)N)C(=O)N1CCC[C@H]1C(=O)N[C@H](CCCNC(=N)N)C(=O)N[C@@H](CC1CCCCC1)C(=O)N[C@@H](CO)C(=O)N[C@@H](Cc1c[nH]cn1)C(=O)N[C@@H](CCCCN)C(=O)NCC(=O)N1[C@H](C(=O)N[C@@H](Cc2ccc(I)cc2)C(=O)N2CCC[C@H]2C(=O)N[C@H](Cc2ccc(-c3ccccc3)cc2)C(=O)O)C[C@@H]2CCCC[C@@H]21)C(=O)O
B8: apelin polypeptide SEQ ID NO: 225 (peptide)
peptide: Tridecanoyl-[γGlu][AEEA][AEEA]Q[hArg]P[dR][NMeL]SHKG[Oic][Nle]P[Phe(4-Cl)]-OH
SMILES: CCCCCCCCCCCCC(=O)N[C@@H](CCC(=O)NCCOCCOCC(=O)NCCOCCOCC(=O)N[C@@H](CCC(N)=O)C(=O)N[C@@H](CCCCNC(=N)N)C(=O)N1CCC[C@H]1C(=O)N[C@H](CCCNC(=N)N)C(=O)N(C)[C@@H](CC(C)C)C(=O)N[C@@H](CO)C(=O)N[C@@H](Cc1c[nH]cn1)C(=O)N[C@@H](CCCCN)C(=O)NCC(=O)N1[C@H](C(=O)N[C@@H](CCCC)C(=O)N2CCC[C@H]2C(=O)N[C@@H](Cc2ccc(Cl)cc2)C(=O)O)C[C@@H]2CCCC[C@@H]21)C(=O)O
B9: apelin polypeptide SEQ ID NO: 229 (peptide)
peptide: Tridecanoyl-[γGlu][AEEA][AEEA][hArg]Q[dR]P[NMeR][Cha]SHKG[Oic][Nle]P[Phe(4-Cl)]-OH
SMILES: CCCCCCCCCCCCC(=O)N[C@@H](CCC(=O)NCCOCCOCC(=O)NCCOCCOCC(=O)N[C@@H](CCCCNC(=N)N)C(=O)N[C@@H](CCC(N)=O)C(=O)N[C@H](CCCNC(=N)N)C(=O)N1CCC[C@H]1C(=O)N(C)[C@@H](CCCNC(=N)N)C(=O)N[C@@H](CC1CCCCC1)C(=O)N[C@@H](CO)C(=O)N[C@@H](Cc1c[nH]cn1)C(=O)N[C@@H](CCCCN)C(=O)NCC(=O)N1[C@H](C(=O)N[C@@H](CCCC)C(=O)N2CCC[C@H]2C(=O)N[C@@H](Cc2ccc(Cl)cc2)C(=O)O)C[C@@H]2CCCC[C@@H]21)C(=O)O
B10: apelin polypeptide SEQ ID NO: 226 (peptide)
peptide: Tridecanoyl-[γGlu][AEEA][AEEA]Q[hArg]P[dR][NMeL]SHKG[Oic][Phe(4-I)]P[Phe(4-Cl)]-OH
SMILES: CCCCCCCCCCCCC(=O)N[C@@H](CCC(=O)NCCOCCOCC(=O)NCCOCCOCC(=O)N[C@@H](CCC(N)=O)C(=O)N[C@@H](CCCCNC(=N)N)C(=O)N1CCC[C@H]1C(=O)N[C@H](CCCNC(=N)N)C(=O)N(C)[C@@H](CC(C)C)C(=O)N[C@@H](CO)C(=O)N[C@@H](Cc1c[nH]cn1)C(=O)N[C@@H](CCCCN)C(=O)NCC(=O)N1[C@H](C(=O)N[C@@H](Cc2ccc(I)cc2)C(=O)N2CCC[C@H]2C(=O)N[C@@H](Cc2ccc(Cl)cc2)C(=O)O)C[C@@H]2CCCC[C@@H]21)C(=O)O

The binders below were run against T1, human APJ receptor (assay: cell-based or functional assay).

EC50 Human APJ Receptor [nM]	Binder
1.45	Heptadecanoyl-[γGlu][AEEA][AEEA][hArg]Q[dR]P[NMeR][Cha]SHKG[Oic][Nle][Pip′][Phe(4-Cl)]-OH [apelin polypeptide SEQ ID NO: 239]
6.05	Heptadecanoyl-[γGlu][AEEA][AEEA]Q[dR]P[NMeR][Cha]SHKG[Oic][Nle][Pip′][Phe(4-Cl)]-OH [apelin polypeptide SEQ ID NO: 234]
11.3	B1
4.96	B2
6.68	B3
0.484	B4
2.19	B5
8.77	B6
28.2	B7
3.02	B8
0.235	B9
0.468	Ac-[dR][hArg]Q[hArg]P[dR][NMeL]SHKG[Oic][Phe(4-I)]P[dBip]-OH [apelin polypeptide SEQ ID NO: 18]
20.8	B10

Each binder was assayed against T2, rat APJ receptor (assay: cell-based or functional assay).

EC50 Rat APJ Receptor [nM]	Binder
8.61	Heptadecanoyl-[γGlu][AEEA][AEEA][hArg]Q[dR]P[NMeR][Cha]SHKG[Oic][Nle][Pip′][Phe(4-Cl)]-OH [apelin polypeptide SEQ ID NO: 239]
12.5	Heptadecanoyl-[γGlu][AEEA][AEEA]Q[dR]P[NMeR][Cha]SHKG[Oic][Nle][Pip′][Phe(4-Cl)]-OH [apelin polypeptide SEQ ID NO: 234]
52.8	B1
4.89	B2
28.5	B3
7.91	B4
2.27	B5
97.5	B6
102	B7
47.9	B8
3.29	B9
0.523	Ac-[dR][hArg]Q[hArg]P[dR][NMeL]SHKG[Oic][Phe(4-I)]P[dBip]-OH [apelin polypeptide SEQ ID NO: 18]
91	B10
